Experimental findings from US20060281118A1 (UNIVERSITY OF MEDICINE AND DENTISTRY OF NEW JERSEY, published 2006) are described below.

One assay deals with Pre1-FLAG (yeast) (UniProt P22141). Nature of the assay: co-immunoprecipitation on FLAG-agarose; amount left on the beads after 18 hours at 4° C.
Another assay deals with T1, Cim3 (yeast, UniProt Q01939 2-405).
T1 construct: Endogenous protein in yeast extracts, detected by immunoblot as part of the proteasome complex; also called Sug1
T1 sequence (looked up): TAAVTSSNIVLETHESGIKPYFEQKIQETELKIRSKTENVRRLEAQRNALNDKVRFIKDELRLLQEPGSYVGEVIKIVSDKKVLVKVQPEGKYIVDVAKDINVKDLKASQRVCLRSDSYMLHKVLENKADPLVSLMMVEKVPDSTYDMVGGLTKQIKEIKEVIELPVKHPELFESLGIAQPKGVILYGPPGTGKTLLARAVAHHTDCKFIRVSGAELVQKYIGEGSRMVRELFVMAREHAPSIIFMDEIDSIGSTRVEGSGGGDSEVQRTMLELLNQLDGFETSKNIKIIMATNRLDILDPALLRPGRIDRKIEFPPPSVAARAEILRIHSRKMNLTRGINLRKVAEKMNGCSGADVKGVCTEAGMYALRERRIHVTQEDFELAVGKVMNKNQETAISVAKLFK
Nature of the assay: GST pull-down from yeast extracts, Cim3 and Cim5 immunoblot (FIG. 13A, lane 5). The procedure:
(§1) GST linked proteins were expressed in yeast and purified on glutathione-SEPHAROSE. Proteins retained on the beads were resolved in SDS-polyacrylamide gels, transferred to nitrocellulose, and incubated with antisera specific to proteasome subunits Cim3 and Cim5. The blot was developed by enhanced chemiluminescence ([…]). […] Yeast strains expressing the GST linked proteins as well as Pre1-FLAG, FIG. 13B. The blot was developed with anti-FLAG antiserum (KODAK). The position of molecular weight markers are indicated.
(§2) Extracts were incubated with glutathione-SEPHAROSE, and bound proteins separated in a SDS-polyacrylamide gel, transferred to nitrocellulose and analyzed by immunological methods. […] The interacting proteins were analyzed via western blot analysis with Cim5 antibodies which cross-react with Mss1, a human counterpart of yeast Cim5 (Ghislain, et al. (1993) Nature 366:358-361).
(In general: A western blot detects proteins with antibodies after separation by electrophoresis.)

In the next assay the target is T2, Cim5 (yeast, UniProt P33299 1-467).
T2 construct: Endogenous protein in yeast extracts, detected by immunoblot as part of the proteasome complex
T2 sequence (looked up): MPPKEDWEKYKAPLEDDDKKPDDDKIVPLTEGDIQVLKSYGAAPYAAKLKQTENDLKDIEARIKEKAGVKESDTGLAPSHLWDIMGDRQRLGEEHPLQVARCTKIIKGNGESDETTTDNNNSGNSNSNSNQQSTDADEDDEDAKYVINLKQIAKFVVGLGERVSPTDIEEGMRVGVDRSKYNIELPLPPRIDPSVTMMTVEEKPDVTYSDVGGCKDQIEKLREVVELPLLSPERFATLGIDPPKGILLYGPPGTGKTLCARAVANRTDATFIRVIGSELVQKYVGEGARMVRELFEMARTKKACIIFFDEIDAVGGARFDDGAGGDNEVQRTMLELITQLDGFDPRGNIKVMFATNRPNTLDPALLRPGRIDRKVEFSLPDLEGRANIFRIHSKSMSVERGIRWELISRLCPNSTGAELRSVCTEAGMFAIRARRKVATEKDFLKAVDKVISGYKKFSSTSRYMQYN
Described as above. The procedure: as §1, §2

Pre1-FLAG (yeast), sequence (P22141 whole entry): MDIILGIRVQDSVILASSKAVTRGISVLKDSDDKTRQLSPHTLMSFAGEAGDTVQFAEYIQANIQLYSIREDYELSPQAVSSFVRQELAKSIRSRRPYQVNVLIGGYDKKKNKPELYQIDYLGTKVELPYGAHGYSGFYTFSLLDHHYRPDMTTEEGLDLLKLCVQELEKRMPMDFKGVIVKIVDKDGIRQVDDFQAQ

Molecule “native Rad23 (from UniProt P32628 1-398)” displayed a percent of cellular Rad23 precipitated with Pre1-FLAG with Pre1-FLAG (yeast) of 5%.

B1: GST-UbL^HRA (other)
chain: MAVTITLKTLQQQTFKIRMEPDETVKVLKEKIEAEKGRDAFPVAGQKLIYAGKILSDDVPIRDYRIDEKNFVVVMVTKTKA
notes: The UbL is linked to the C-terminus of GST; also called ubiquitin-like domain of HHR23A linked to GST; not shown: glutathione S-transferase (GST)
Consider B1, for which the binding result with Cim3 and with Cim5 was “no binding” in each case.
